Test results taken from patent US20150344570A1 (published 2015).

Legend:
[1] = molecular target: T1, FcγRIa extracellular domain with C-terminal His tag (human, UniProt P12314 16-292); assay: ratio He/Con_1a : He/Con_2b (FcγRIa over FcγRIIb), SPR (Biacore)
T1 construct: extracellular domain; Soluble receptor used as analyte in Biacore; also called FcgRI

[2] = molecular target: T1, FcγRIa extracellular domain with …; assay: SPR (Biacore), antibody captured, FcγR as analyte; binding relative to GpH7-A5/GpH7-B3/GpL16-k0 = 100
[3] = molecular target: T2, FcγRIIb extracellular domain with C-terminal His tag (human, UniProt P31994 43-217); assay: as above
T2 construct: extracellular domain; Soluble receptor used as analyte in Biacore; also called FcgRIIb
T2 sequence (looked up): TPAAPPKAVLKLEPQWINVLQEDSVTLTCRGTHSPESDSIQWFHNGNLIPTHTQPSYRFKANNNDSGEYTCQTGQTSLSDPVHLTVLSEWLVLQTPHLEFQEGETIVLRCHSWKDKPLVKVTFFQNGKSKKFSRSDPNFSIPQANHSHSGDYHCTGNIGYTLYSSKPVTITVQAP

[4] = molecular target: T3, FcγRIIa H (FcγRIIa, allotype with His at position 131), extracellular domain with C-terminal His tag (human, UniProt P12318 34-217); assay: SPR (Biacore); He/Con_2aH divided by He/Con_2b (FcγRIIb)
T3 construct: extracellular domain; also called FcgRIIa H; 2aH; not shown: His tag at the C terminus
T3 sequence (looked up): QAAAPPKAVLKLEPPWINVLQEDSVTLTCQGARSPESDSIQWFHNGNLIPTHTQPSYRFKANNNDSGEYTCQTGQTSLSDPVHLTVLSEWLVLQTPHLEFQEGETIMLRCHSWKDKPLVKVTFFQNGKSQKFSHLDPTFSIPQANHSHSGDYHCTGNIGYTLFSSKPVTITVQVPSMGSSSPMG

[5] = molecular target: T3, FcγRIIa H (FcγRIIa, allotype with His …); assay: SPR (Biacore), relative binding vs GpH7-A5/GpH7-B3/GpL16-k0
[6] = molecular target: T4, FcγRIIb, extracellular domain with C-terminal His tag (human, UniProt P31994 43-217); assay: as above
T4 construct: extracellular domain; also called FcgRIIb; 2b; not shown: His tag at the C terminus
T4 sequence (looked up): T2 sequence (looked up)

T1 sequence (P12314 16-292): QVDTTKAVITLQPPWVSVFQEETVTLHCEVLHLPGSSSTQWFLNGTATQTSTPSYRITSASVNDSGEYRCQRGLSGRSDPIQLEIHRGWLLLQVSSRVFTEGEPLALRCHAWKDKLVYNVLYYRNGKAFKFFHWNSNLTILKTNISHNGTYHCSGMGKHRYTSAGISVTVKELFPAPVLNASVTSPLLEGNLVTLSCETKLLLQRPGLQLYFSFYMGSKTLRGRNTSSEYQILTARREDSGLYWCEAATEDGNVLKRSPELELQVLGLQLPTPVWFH

B1: GpH7-A5/GpH7-B3 variant L328_02A/GpL16-k0 (antibody, human IgG1, kappa)
heavy 1: not shown
heavy 2: not shown
light: DIVMTQSPLSLPVTPGEPASISCQASESLVHSNRNTYLHWYLQKPGQSPQLLIYKVSNRFSGVPDRFSGSGSGTDFTLKISRVEAEDVGVYYCSQNTHVPPTFGQGTKVEIERTVAAPSVFIFPPSDEQLKSGTASVVCLLNNFYPREAKVQWKVDNALQSGNSQESVTEQDSKDSTYSLSSTLTLSKADYEKHKVYACEVTHQGLSSPVTKSFNRGEC
notes: Heterodimerized IgG1, mutation in the GpH7-B3 chain only; also called He Ab
- He_1a/2b (Ia/IIb) [1]: 0.68
- He/Con_1a [2]: 98.5 control = 100
- He/Con_2b [3]: 144 control = 100

B2: GpH7-A5/GpH7-B3 variant N325_01G/GpL16-k0 (antibody, human IgG1, kappa)
heavy 1: not shown
heavy 2: not shown
light: B1 light
notes: Heterodimerized anti-glypican-3 IgG1; mutation in one H chain only; also called He Ab
- He_2aH/2b (IIaH/IIb) [4]: 0.56 ratio
- He/Con_2aH [5]: 56.8 % of HeCon Ab (=100)
- He/Con_2b [6]: 101 % of HeCon Ab (=100)

B3: GpH7-A5/GpH7-B3 variant N325_04F/GpL16-k0 (antibody, human IgG1, kappa)
heavy 1: not shown
heavy 2: not shown
light: B1 light
notes: as for B1
- He_1a/2b (Ia/IIb) [1]: 0.65
- He/Con_1a [2]: 93.2 control = 100
- He/Con_2b [3]: 143 control = 100

B4: GpH7-A5/GpH7-B3 variant N325_20W/GpL16-k0 (antibody, human IgG1, kappa)
heavy 1: not shown
heavy 2: not shown
light: B1 light
notes: as for B1
- He_1a/2b (Ia/IIb) [1]: 0.56
- He/Con_1a [2]: 93.8 control = 100
- He/Con_2b [3]: 169 control = 100

B5: GpH7-A5/GpH7-B3 variant K326_19Q/GpL16-k0 (antibody, human IgG1, kappa)
heavy 1: not shown
heavy 2: not shown
light: B1 light
notes: as for B2
- He_2aH/2b (IIaH/IIb) [4]: 0.73 ratio
- He/Con_2aH [5]: 101 % of HeCon Ab (=100)
- He/Con_2b [6]: 139 % of HeCon Ab (=100)

B6: GpH7-A5/GpH7-B3 variant K326_06M/GpL16-k0 (antibody, human IgG1, kappa)
heavy 1: not shown
heavy 2: not shown
light: B1 light
notes: as for B2
- He_2aH/2b (IIaH/IIb) [4]: 0.63 ratio
- He/Con_2aH [5]: 103 % of HeCon Ab (=100)
- He/Con_2b [6]: 165 % of HeCon Ab (=100)

B7: GpH7-A5/GpH7-B3 variant L328_06M/GpL16-k0 (antibody, human IgG1, kappa)
heavy 1: not shown
heavy 2: not shown
light: B1 light
notes: as for B1
- He_1a/2b (Ia/IIb) [1]: 0.7
- He/Con_1a [2]: 98.7 control = 100
- He/Con_2b [3]: 142 control = 100

B8: GpH7-A5/GpH7-B3 variant K326_14T/GpL16-k0 (antibody, human IgG1, kappa)
heavy 1: not shown
heavy 2: not shown
light: B1 light
notes: as for B2
- He_2aH/2b (IIaH/IIb) [4]: 0.77 ratio
- He/Con_2aH [5]: 114 % of HeCon Ab (=100)
- He/Con_2b [6]: 150 % of HeCon Ab (=100)

B9: GpH7-A5/GpH7-B3 variant P331_16H/GpL16-k0 (antibody, human IgG1, kappa)
heavy 1: not shown
heavy 2: not shown
light: B1 light
notes: as for B1
- He_1a/2b (Ia/IIb) [1]: 0.8
- He/Con_1a [2]: 92.4 control = 100
- He/Con_2b [3]: 116 control = 100

B10: GpH7-A5/GpH7-B3 variant L328_09D/GpL16-k0 (antibody, human IgG1, kappa)
heavy 1: not shown
heavy 2: not shown
light: B1 light
notes: as for B1
- He_1a/2b (Ia/IIb) [1]: 0.51
- He/Con_1a [2]: 102 control = 100
- He/Con_2b [3]: 199 control = 100

B11: GpH7-A5/GpH7-B3 variant K326_08L/GpL16-k0 (antibody, human IgG1, kappa)
heavy 1: not shown
heavy 2: not shown
light: B1 light
notes: as for B2
- He_2aH/2b (IIaH/IIb) [4]: 0.52 ratio
- He/Con_2aH [5]: 92.7 % of HeCon Ab (=100)
- He/Con_2b [6]: 177 % of HeCon Ab (=100)

B12: GpH7-A5/GpH7-B3 variant K326_07I/GpL16-k0 (antibody, human IgG1, kappa)
heavy 1: not shown
heavy 2: not shown
light: B1 light
notes: as for B2
- He_2aH/2b (IIaH/IIb) [4]: 0.5 ratio
- He/Con_2aH [5]: 100 % of HeCon Ab (=100)
- He/Con_2b [6]: 199 % of HeCon Ab (=100)

B13: GpH7-A5/GpH7-B3 variant N325_07I/GpL16-k0 (antibody, human IgG1, kappa)
heavy 1: not shown
heavy 2: not shown
light: B1 light
notes: as for B1
- He_1a/2b (Ia/IIb) [1]: 0.55
- He/Con_1a [2]: 94.8 control = 100
- He/Con_2b [3]: 171 control = 100

B14: GpH7-A5/GpH7-B3 variant N325_08L/GpL16-k0 (antibody, human IgG1, kappa)
heavy 1: not shown
heavy 2: not shown
light: B1 light
notes: as for B1
- He_1a/2b (Ia/IIb) [1]: 0.5
- He/Con_1a [2]: 97.5 control = 100
- He/Con_2b [3]: 197 control = 100

B15: GpH7-A5/GpH7-B3 variant L328_13S/GpL16-k0 (antibody, human IgG1, kappa)
heavy 1: not shown
heavy 2: not shown
light: B1 light
notes: as for B1
- He_1a/2b (Ia/IIb) [1]: 0.66
- He/Con_1a [2]: 99 control = 100
- He/Con_2b [3]: 149 control = 100

B16: GpH7-A5/GpH7-B3 variant L328_07I/GpL16-k0 (antibody, human IgG1, kappa)
heavy 1: not shown
heavy 2: not shown
light: B1 light
notes: as for B1
- He_1a/2b (Ia/IIb) [1]: 0.62
- He/Con_1a [2]: 99.4 control = 100
- He/Con_2b [3]: 160 control = 100
